What was measured:
[1] = Intraocular pharmacokinetic evaluation after intravitreal injection (ELISA of vitreous, retina, aqueous humor); format: in vivo, New Zealand White (NZW) rabbit
Description: Bevacizumab drug control, hydrogel (in situ forming hydrogel) in Comparative Example, and hydrogel rod in Example were injected. The rabbits were sacrificed on days 1, 4, 8, 14, 30, 60, 90, and 120. In order to maintain its drug efficacy, the concentration of drug must be maintained from vitreous humor to retina, while the drug may be eliminated to the anterior chamber site. For evaluation, pharmacokinetic analysis of vitreous, retina, and aqueous humor tissues was conducted through ELISA after animal sacrifice and ocular separation by date.
After animal sacrifice and ocular separation by date, pharmacokinetic analysis of vitreous, retina, and aqueous tissues was performed via ELISA. […] The hydrogel rod of Example is a pre-crosslinking matrix, and, after the initial burst release is inhibited by 7 times compared to the control and 3 times compared to the hydrogel of Comparative Example, the drug was continuously released within a certain range and the drug concentration of about 32 µg/mL was maintained on 120 day, satisfying a level above […] which is the drug efficacy threshold of bevacizumab.

[2] = test system: human umbilical vein endothelial cells (HUVECs); assay: WST-1 assay, growth inhibition of HUVEC by released drug; format: cell-based; conditions: released drug samples diluted 1:1 in culture medium; fresh bevacizumab 1, 10, 100 µg/mL
Description: The long-term efficacy and biological stability of drugs released were evaluated through culture of human umbilical vein endothelial cells (HUVECs), which are cells that are involved in angiogenesis. After culturing HUVECs, they were prepared in 2×10^4 cells/well in a 48-well plate and treated with the long-term released bevacizumab drug samples diluted in 1:1 ratio in a cell culture medium (EBM media containing EGM supplements and 1% P/S) and fresh bevacizumab drug samples by concentration so as to observe cell growth inhibition and safety. For the control of fresh bevacizumab drug samples by concentration, preparation was performed at final concentrations of 1, 10, and 100 µg/mL, diluted in cell culture media.

With bevacizumab the “initial excess elimination maintained until” value ([1]; aqueous humor (drainway)) was 30 days, the elimination curve ([1]; retina) was “fastest elimination curve” and the elimination curve ([1]; vitreous) was “fastest elimination curve”. For the same substance, the “inhibition of HUVEC cell growth (WST-1)” value [2] was “inhibition of cell growth in proportion to the concentration of the drug”.
